Assay [1] addresses recombinant human CTLA-4-His-tag protein (Homo sapiens (Human).) (UniProt P16410). The experiment in a line: SPR.
In assay [2] the target is recombinant human CTLA-4-His-tag protein (Homo sapiens (Human)., UniProt P16410). Put plainly: SPR. (In SPR one partner is held on a chip, and binding of the other changes the refractive index at the surface.)
Chain of recombinant human CTLA-4-His-tag protein (P16410 36-161): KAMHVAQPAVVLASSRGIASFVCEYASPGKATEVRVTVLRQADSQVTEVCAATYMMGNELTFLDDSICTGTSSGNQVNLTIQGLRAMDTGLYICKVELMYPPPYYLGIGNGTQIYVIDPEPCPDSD

For ipilimumab (antibody), the Kd (usually the constant that tells how readily two partners part at equilibrium) in assay [1] is 16.1 nM.

B1: JS007, humanized IgG1 anti-CTLA-4 monoclonal antibody (antibody, V domains shown)
VH: QVQLQESGPGLVKPSQTLSLTCTVSAYSITSGYYWNWIRQHPGKGLEWIGYIGYDGSNNYNPSLKSRVTISRDTSKNQFSLKLSSVTAADTAVYYCARDYYSGYFDSWGQGTTLTVSS
VL: DIQMTQSPSSLSASVGDRVTITCRASQNVGTYVAWYQQKPGKVPKPLIYSTSYRYSGVPSRFSGSGSGTDFTLTISSLQPEDVATYFCHQYDTYPLTFGAGTKLELK
In the case of B1, the Kd in assay [2] came out at 0.21 nM.

These data come from publication PMC9754112 (mAbs, 2022).
